Data taken from patent US20260022170A1 (published 2026).

Key:
[1] = target: human Siglec-9 protein (recombinant; construct not stated) (UniProt Q9Y336 18-344); assay: BLI
[2] = target: recombinant Siglec-9 (SinoBiological, 30109-H03H) (UniProt Q9Y336 18-348); assay: ELISA
[3] = target: recombinant human Siglec-9 protein (UniProt Q9Y336 18-348); assay: ELISA
Sequence of recombinant human Siglec-9 protein (Q9Y336 18-348): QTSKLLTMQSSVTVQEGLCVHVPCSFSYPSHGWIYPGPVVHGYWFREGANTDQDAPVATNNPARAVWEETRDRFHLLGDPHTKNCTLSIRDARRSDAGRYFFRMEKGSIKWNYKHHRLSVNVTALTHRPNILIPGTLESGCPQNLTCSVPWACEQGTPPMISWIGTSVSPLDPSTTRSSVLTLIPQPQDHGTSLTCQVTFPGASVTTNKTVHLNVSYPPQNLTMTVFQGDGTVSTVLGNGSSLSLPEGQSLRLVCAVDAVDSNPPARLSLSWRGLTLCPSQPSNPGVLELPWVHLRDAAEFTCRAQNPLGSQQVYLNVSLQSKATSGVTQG

Sequence of human Siglec-9 protein (recombinant; construct not stated) (Q9Y336 18-344): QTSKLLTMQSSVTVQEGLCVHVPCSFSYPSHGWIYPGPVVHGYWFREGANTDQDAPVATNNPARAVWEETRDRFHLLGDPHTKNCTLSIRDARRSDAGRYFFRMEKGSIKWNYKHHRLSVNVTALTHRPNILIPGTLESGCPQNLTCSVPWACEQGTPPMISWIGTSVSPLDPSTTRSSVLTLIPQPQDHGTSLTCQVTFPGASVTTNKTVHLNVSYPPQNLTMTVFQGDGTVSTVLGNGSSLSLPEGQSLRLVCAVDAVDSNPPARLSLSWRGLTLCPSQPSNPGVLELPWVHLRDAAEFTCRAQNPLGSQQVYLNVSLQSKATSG
Sequence of recombinant Siglec-9 (SinoBiological, 30109-H03H) (Q9Y336 18-348): as the sequence (Q9Y336 18-348) above

Kd [1]	Binder	also measured
80 nM	anti-Siglec-9 monoclonal antibody clone CB6B3 (parental mouse antibody) (antibody, V domains shown) VH: EVQLQQSGAEVVRPGALVKLSCKAAGFNIKDYFIHWVKQRPEQGLEWIGLIDPENDNTMYDPRFQVKASLTADTSSNTAYLQLSRLTSEDAAVYYCASTVVARSFDYWGQGTTLTVSS VL: SIVMTQTPKFLLVSAGDRVTITCKASQSVSNDVAWYQQKSGQSPKLLIYYTSNRYTGVPDRFTGSGYGTDFTFTISTVQAEDLAVYFCQQDFRSPFTFGAGTKLELK	–
–	humanised CB6B3 (huCB6B3) (antibody, V domains shown) VH: EVQLVQSGAEVKKPGATVKISCKVSGYTFTDYFIHWVQQAPGKGLEWMGLIDPENDNTMYDPRFQVRVTITADTSTDTAYMELSSLRSEDTAVYYCASTVVARSFDYWGQGTTVTVSS VL: AIQMTQSPSSLSASVGDRVTITCKASQSVSNDVAWYQQKPGKAPKLLIYYTSNRYTGVPSRFSGSGSGTDFTLTISSLQPEDFATYYCQQDFRSPFTFGGGTKVEIK	EC50 [2]: 0.13 nM
–	Benchmark-3 (antibody, V domains shown) VH: QSLEESGGRLVKPDETLTITCTVSGIDLSSYDMTWVRQAPGKGLEWIGIIYTGGLTYYASWAKGRFTISKTSTTVDLKITSPTTEDTATYFCAREVGDNNNFWGPGTLVTVSS VL: DVVMTQTPASVSEPVGGTVTIKCQASESVDSGLAWYHQKPGQPPKLLIYDDTDLASGVPSRFKGSRSGTAHTLTISDLECADAATYYCQYTDYGRTYVGTFGGGTEVVIKG	EC50 [3]: 0.157 nM
38 nM	anti-Siglec-9 monoclonal antibody clone ED2D5 (antibody, V domains shown) VH: EVQLVESGGGLVKPGGSLKLSCAASGFTFSDYYMYWVRQTPEKRLEWVATISDGGSDTYYPDNMKGRFTISRDNAKNNLYLQMSSLKSEDTAMYYCTRDPDYDDGRFAYWGQGTLVTVSA VL: DIVMTQSHKFMSTSVGDRVSITCKASQDVGTVVAWYQQKSGQSPKLLIYWSSTRHTGVPDRFTGSGSGTDFTLTISNVQSEDLADYFCQQYIDYPLSFGAGTKLELK	–
